The source of these data is patent US20220127341A1 (HUDSON INSTITUTE OF MEDICAL RESEARCH, published 2022).

Test [1] concerns the target T1, human KRT14 (Keratin, type I cytoskeletal 14) as expressed by human cancer cells and tumour tissue (Homo sapiens (Human), UniProt P02533 1-472).
T1 construct: whole, on cells; Probed on intact cells (surface-exposed N-terminal portion), on permeabilized cells and in FFPE tissue sections; also called K14; Keratin-14
T1 sequence (looked up): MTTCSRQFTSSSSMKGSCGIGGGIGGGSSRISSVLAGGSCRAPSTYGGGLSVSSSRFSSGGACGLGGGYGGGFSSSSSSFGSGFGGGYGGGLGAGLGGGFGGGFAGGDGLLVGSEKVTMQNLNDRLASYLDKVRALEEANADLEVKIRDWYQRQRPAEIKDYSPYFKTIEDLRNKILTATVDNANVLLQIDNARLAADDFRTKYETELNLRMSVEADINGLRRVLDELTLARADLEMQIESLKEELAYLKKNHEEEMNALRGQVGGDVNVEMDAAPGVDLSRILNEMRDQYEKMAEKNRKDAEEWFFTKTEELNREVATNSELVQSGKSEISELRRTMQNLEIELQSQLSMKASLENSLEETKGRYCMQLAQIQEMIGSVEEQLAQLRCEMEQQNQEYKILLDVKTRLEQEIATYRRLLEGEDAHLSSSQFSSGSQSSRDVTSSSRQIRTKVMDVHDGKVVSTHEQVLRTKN
Nature of the test: flow cytometry. The procedure:
OVCAR3, CAOV4, ID8 and the patient-derived 3.1937-07 cell lines were analysed on a BD LSRFortessa X-20 (BD Biosciences) flow cytometer for KRT14+ cell populations, using mAb AN-17 or a commercially available polyclonal antibody to KRT14 (Sigma SAB4501657).
(§1) Flow cytometry was carried out according to standard protocols (PMID: 30602661), with data acquired using a BD LSRFortessa X-20 (BD Biosciences) and analysed using FlowJo software v10.5.0 (BD Biosciences). Samples assessed for KRT14+ cell populations included OVCAR3, CAOV4, ID8 mouse ovarian cancer cells, ascites-derived ovarian cancer cells derived from a clinical specimen (designated #3.1937-07) and cardiac blood from a mice bearing 12-week old epithelial ovarian tumours. For cell lines, 1×10⁶ cells per cell line were incubated with either mAb AN-17 (1:200 dilution) or a commercially available anti-KRT14 polyclonal antibody (Sigma SAB4501657; 1:50 dilution) as a positive control for 45 mins in non-immune serum at room temperature. The secondary antibodies, goat anti-mouse Alexa647 (mAb AN-17) or goat anti-rabbit IgG Alexa 488 (commercial Ab), were diluted 1:500 and incubated for 30 minutes. For blood samples. 2×10⁶ cells were incubated with an Alexa Fluor® 488-conjugated mAb AN-17 antibody for 45 minutes. […]
In general terms: Flow cytometry measures light scatter and fluorescence of single cells or particles in a stream.

The target in test [2] is T2, mouse KRT14 (Keratin, type I cytoskeletal 14) as expressed by murine ID8 ovarian cancer cells (Mus musculus (Mouse), UniProt Q61781 1-484).
T2 construct: whole, on cells; also called non-human protein
T2 sequence (looked up): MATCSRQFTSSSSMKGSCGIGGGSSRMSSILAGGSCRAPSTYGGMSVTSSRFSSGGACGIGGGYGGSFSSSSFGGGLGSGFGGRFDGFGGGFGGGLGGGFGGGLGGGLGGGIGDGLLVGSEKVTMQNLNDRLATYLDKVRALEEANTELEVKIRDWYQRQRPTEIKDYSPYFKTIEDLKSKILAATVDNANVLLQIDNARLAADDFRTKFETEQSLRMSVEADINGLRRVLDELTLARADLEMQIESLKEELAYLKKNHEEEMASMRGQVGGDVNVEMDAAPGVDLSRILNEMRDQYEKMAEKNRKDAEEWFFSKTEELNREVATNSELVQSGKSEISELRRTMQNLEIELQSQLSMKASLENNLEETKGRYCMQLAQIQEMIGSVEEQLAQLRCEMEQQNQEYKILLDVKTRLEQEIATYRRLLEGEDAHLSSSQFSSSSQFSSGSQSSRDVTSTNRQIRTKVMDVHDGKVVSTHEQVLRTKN
Briefly: flow cytometry of cardiac blood stained with anti-CD45 and mAb AN-17. The protocol: Cardiac blood was taken from mice bearing 12-week old ID8 iRFP720+ epithelial ovarian tumours and stained using anti-CD45 and mAb AN-17. Circulating ID8 tumour cells were identified as KRT14+CD45− cells and confirmed by iRFP720+ status. iRFP720+ID8 cells spiked into blood was used as a positive control.
as §1

B1: monoclonal anti-KRT14 antibody AN-17 (antibody, V domains shown)
VH: QVQLKESGPGLVAPSQSLSITCTVSGFSLSRYSVHWVRQPPGKGLEWLGMIWGGGSTDYNSALKSRLSISKDNSKSQVFLKMNSLQTDDTAMYYCARKDYGYSYFDYWGQGTTLTVSS
VL: DVLMTQTPLSLPVSLGDQASISCRSSQSIVHSNGNTYLEWYLQKPGQSPKLLIYKVSNRFSGVPDRFSGSGSGTDFTLKISRVEAEDLGVYYCFQGSHVPFTFGSGTKLEIKR
notes: the isotype-matched control used is mouse IgG1 kappa; Some assays used it conjugated to Alexa Fluor 488 or Alexa-647; also called mAb AN-17; mAb AN17
On to B1, for which the binding result in test [1] and in test [2] was “binds” each time.
